B1: sdCA9-1-VHH (VHH)
VHH: QVQLVESGGGLVQAGGSLRLSCAASGFTFDDWAIGWFRQAPGKEREGVSCISKRHGTTHYADSVKGRFTISSDNAKNTVYLRMNGLKPEDTAVYYCAASSWGSCTVATMRDVDRYDYDYWGQGTQVTVSS
notes: Llama VHH expressed in E. coli from the pSJF2 vector and purified by IMAC
B2: sdCA9-3-VHH (VHH)
VHH: QVQLVESGGGLVQAGDSLRLSCAASGGTFSRYGMGWFRQAPGKEREFVAAISGTGLNTYYMDSVKGRFTISRDNAENTVYLQMNSLKPEDTAVYYCARDRGGVEYDYWGQGTQVTVSS
notes: Llama VHH expressed in E. coli from the pSJF2 vector and purified by IMAC; also called sdCA9-3-VHH-VHH
B3: sdCA9-2-VHH (VHH)
VHH: QVKLEESGGDLVQPGGSLRLSCAASGFTLDYYAIGWFRQAPGKEREGVSCFSSVDGSTYYADSVKGRFTISRDNAKNMVYLQMNSLKPEDTAIYYCAAELYGELGVATVQAMCRLTTPGGDYWGQGTQVTVSS
notes: as for B1

What was measured:
[1] = target: T1, hCA-IX ECD dimer (dimeric extracellular domain of hCA-IX) (human, UniProt Q16790 38-414); assay: cell-based or functional assay
human CA-IV = target: T2, human CA-IV (human, UniProt P22748 19-283, limits assumed); assay: ELISA on purified protein, binding above background
T2 construct: also called carbonic anhydrase IV

human CA-XII = target: T3, human CA-XII (human, UniProt O43570 25-291, limits assumed); assay: as above
T3 construct: also called carbonic anhydrase XII

human CA-XIV = target: T4, human CA-XIV (human, UniProt Q9ULX7 16-290, limits assumed); assay: as above
T4 construct: also called carbonic anhydrase XIV

human CA-II = human CA-II (human, UniProt P00918 1-260); assay: as above
mouse CA-IX [2] = target: T5, mouse CA-IX (mouse, UniProt Q8VHB5 32-390, limits assumed); assay: ELISA on purified protein, 500 nM VHH, binding above background
Procedure: Cross reactivity and CA-IX specificity. Binding specificity and species cross reactivity of two sdAb were tested in an ELISA assay using purified proteins for human, mouse, cynomolgus monkey and dog CA-IX.

[3] = target: hCA-IX-ECD monomeric (monomeric parental CA-IX extracellular domain) (human, UniProt Q16790 38-414); assay: SPR; CA-IX immobilized on SA sensor chip, VHH injected
Procedure: (§1) In vitro binding affinity/SPR. To evaluate the binding affinity (KD) of the VHH only format of the 4 single domain antibodies, CA-IX monomer and dimer were immobilized on SA sensor chip (GE Healthcare) and serial dilutions of the sdAbs were injected over the surface (FIG. 3A).

[4] = target: T1, hCA-IX ECD dimer (dimeric extracellular …); assay: as above
Procedure: as §1

mouse CA-IX [5] = target: T5, mouse CA-IX; assay: ELISA on purified protein, binding above background

T2 sequence (P22748 19-283 limits assumed): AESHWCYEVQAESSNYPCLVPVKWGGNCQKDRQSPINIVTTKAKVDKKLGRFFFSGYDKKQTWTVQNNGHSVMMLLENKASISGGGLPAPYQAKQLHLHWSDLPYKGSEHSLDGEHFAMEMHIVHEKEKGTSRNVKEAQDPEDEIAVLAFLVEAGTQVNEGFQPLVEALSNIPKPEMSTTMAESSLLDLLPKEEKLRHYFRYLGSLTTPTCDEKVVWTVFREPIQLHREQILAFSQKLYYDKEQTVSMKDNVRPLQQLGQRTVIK
T4 sequence (Q9ULX7 16-290 limits assumed): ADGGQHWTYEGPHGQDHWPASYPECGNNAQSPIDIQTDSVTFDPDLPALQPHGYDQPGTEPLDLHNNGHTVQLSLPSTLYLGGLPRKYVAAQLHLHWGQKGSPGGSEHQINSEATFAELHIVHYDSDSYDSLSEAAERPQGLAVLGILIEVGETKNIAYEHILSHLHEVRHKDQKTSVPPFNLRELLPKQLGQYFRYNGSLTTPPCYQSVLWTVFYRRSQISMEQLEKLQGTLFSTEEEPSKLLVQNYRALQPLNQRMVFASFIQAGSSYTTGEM
T3 sequence (O43570 25-291 limits assumed): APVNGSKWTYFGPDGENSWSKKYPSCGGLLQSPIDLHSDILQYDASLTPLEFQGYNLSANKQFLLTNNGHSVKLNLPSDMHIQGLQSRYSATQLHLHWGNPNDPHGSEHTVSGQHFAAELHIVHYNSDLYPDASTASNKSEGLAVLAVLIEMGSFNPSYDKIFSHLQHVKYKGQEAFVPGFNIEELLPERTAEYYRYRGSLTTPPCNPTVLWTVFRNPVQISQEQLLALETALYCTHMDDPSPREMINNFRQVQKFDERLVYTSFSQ
T5 sequence (Q8VHB5 32-390 limits assumed): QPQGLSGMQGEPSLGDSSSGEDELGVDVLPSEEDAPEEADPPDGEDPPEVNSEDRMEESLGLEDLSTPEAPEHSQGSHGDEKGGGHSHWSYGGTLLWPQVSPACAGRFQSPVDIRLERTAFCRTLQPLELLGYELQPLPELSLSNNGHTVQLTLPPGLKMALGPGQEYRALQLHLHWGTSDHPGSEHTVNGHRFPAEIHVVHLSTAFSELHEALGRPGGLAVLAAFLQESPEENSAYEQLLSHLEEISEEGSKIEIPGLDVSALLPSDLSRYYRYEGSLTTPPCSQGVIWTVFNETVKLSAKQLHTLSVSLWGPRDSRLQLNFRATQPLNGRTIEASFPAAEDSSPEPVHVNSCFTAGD

Row | Binder | IC50 (hCA-IX in vitro enzyme activity, 4Mu-Ac hydrolysis) [1] | logIC50 (hCA-IX in vitro enzyme activity, 4Mu-Ac hydrolysis) [1] | binding result (human CA-IV) | binding result (human CA-XII) | binding result (human CA-XIV) | binding result (human CA-II) | binding result (mouse CA-IX [2]) | Kd [3] [nM] | Kd [4] [nM] | binding result (mouse CA-IX [5])
1 | B1 | 0.111 µM (unit not printed; the text gives the values in nM) | -0.954 log10 of IC50 (IC50 in µM; unit not printed) | no binding (tested: 500 nM) | no binding (tested: 500 nM) | no binding (tested: 500 nM) | no binding (tested: 500 nM) | binds | 28.9 | 37 | 
2 | B2 |  |  |  |  |  |  |  | 314 | 341 | 
3 | B3 | 0.0484 µM (unit not printed; the text gives the values in nM) | -1.13 log10 of IC50 (IC50 in µM; unit not printed) | no binding (tested: 500 nM) | no binding (tested: 500 nM) | no binding (tested: 500 nM) | no binding (tested: 500 nM) |  | 234 | 176 | no binding (tested: 500 nM)
